# According to US20240325481A1 (MOREHOUSE SCHOOL OF MEDICINE, published 2024):
# B1: MoMo30 protein (hevamine A-related protein) from Momordica balsamina, purified from leaf extract (other)
# chain: GGIATYWGQDTREGRLTAACATGKFQIINIGFLSTFGNGRPPQVNLTRHCSPISNGCRNVSVGVLNCRNDGVKVMLSIGGPHGSYSLSSAAEAIDLADYIWNNFLGGRSTSLRPFGDVPLDGVDFRIERGQFSHYYTMVARRLHDYGRQCSRKVYLTAAPGCRFPDKYLTELLHTGLFDYVWVRFFDDRQCQYNSVNPSGFWWSWMRWINSIPARKFYVGIPASEEAGDGYVAPEVLIKEVLPFTKKFTNYGGVMLFDLSNDVQTNYSSIISNRV
# Molecular target: gp120 of HIV-1NL4-3 virus (on virus particles) (HIV-1 (NL4-3))
# Test: cell-based or functional assay
binder,measurement,value
B1,"IC50, inhibition of HIV-1NL4-3 infectivity in MAGI cell assay",2.8 nM
